Reference: the supplement of paper PMC7877785
± gives the uncertainty stated by the source.

Assay: self-splicing fitness, log relative to wild type (ln ratio); higher = more splicing; Tetrahymena group I intron in knt gene, E. coli kanamycin selection, DiMSum; sequences stand for … in CUCUCU…GGAGGGAAAAGUUAUCAGGCAUGCACCUGGUAGCUAGUCUUUAAACCAAUAGAUUGCAUCGGUUUAAAAGGCAAGACCGUCAAAUUGCGGGAAAGGGGUCAACAGCCGUUCAGUACCAAGUCUCAGGGGAAACUUUGAGAUGGCCUUGCAAAGGGUAUGGUAAUAAGCUGACGGACAUGGUCCUAACCACGCAGCCAAGUCCUAAGUCAACAGAUCUUCUGUUGAUAUGGAUGCAGUUCACAGACUAAAUGUCGGUCGGGGAAGAUGUAUUCUUCUCAUAAGAUAUAGUCGGACCUCUCCUUAAUGGGAGCUAGCGGAUGAAGUGAUGCAACACUGGAGCCGCUGGGAACUAAUUUGUAUGCGAAAGUAUAUUGAUUAGUUUUGGAGUACUCGUGGUCG
Outline: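 Pooled colonies went to amplicon sequencing on an Illumina HiSeq 2500 after six replicate transformations. The plates were LB agar with 100 μg/mL carbenicillin, 50 μM IPTG and 0.2% rhamnose, with or without 25 μg/mL kanamycin, incubated overnight at 37°C or 30°C. The E. coli BL21(DE3) library had all eight P1ex-region intron nucleotides randomised, the intron placed in the knt kanamycin-resistance gene on pET-22b(+). DiMSum fitness is the error-weighted combination of replicate fold changes, kanamycin against none, normalised to wild type.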

| Sequence | self-splicing fitness (ln) (37 °C) | self-splicing fitness (ln) (30 °C) |
| --- | --- | --- |
| UAUGAGCAAUAUUACGAGGA | -1.91 ± 0.27 | – |
| UAUGAGCAAUAUUACGAGGU | -3.62 ± 0.46 | – |
| UAUGAGCAAUAUUACGAUUC | -1.6 ± 0.45 | – |
| UAUGAGCAAUAUUACGCAAG | -1.36 ± 0.23 | -2.66 ± 0.24 |
| UAUGAGCAAUAUUACGCACC | -0.807 ± 0.36 | -1.68 ± 0.49 |
| UAUGAGCAAUAUUACGCCAU | -2.59 ± 0.3 | -2.15 ± 0.2 |
| UAUGAGCAAUAUUACGGAAG | -2.14 ± 0.36 | -3.37 ± 0.37 |
| UAUGAGCAAUAUUACGGGUA | -2.05 ± 0.14 | -1.86 ± 0.14 |
| UAUGAGCAAUAUUACGGGUC | -2.91 ± 0.25 | -3.72 ± 0.23 |
| UAUGAGCAAUAUUACGGGUG | -1.06 ± 0.16 | -2.3 ± 0.15 |
| UAUGAGCAAUAUUACGGUAU | -1.06 ± 0.24 | -4.03 ± 0.42 |
| UAUGAGCAAUAUUACGUCGU | -2.93 ± 0.32 | -3.39 ± 0.3 |
| UAUGAGCAAUAUUACGUGUA | -1.32 ± 0.12 | -2.13 ± 0.16 |
| UAUGAGCAAUAUUACGUUAA | -2.59 ± 0.28 | -4.12 ± 0.31 |
| UAUGAGCAAUAUUACGUUCU | -2.67 ± 0.34 | -3.57 ± 0.29 |
| UAUUAGCAAUAUUACGAAAC | -2.53 ± 0.3 | – |
| UAUUAGCAAUAUUACGAAGG | -0.523 ± 0.17 | -2.18 ± 0.22 |
| UAUUAGCAAUAUUACGAAUC | -0.913 ± 0.2 | -3.46 ± 0.23 |
| UAUUAGCAAUAUUACGAAUU | -0.596 ± 0.21 | -2.51 ± 0.2 |
| UAUUAGCAAUAUUACGACUG | 0.804 ± 0.21 | -0.225 ± 0.16 |
| UAUUAGCAAUAUUACGAUCC | -1.76 ± 0.25 | -3.56 ± 0.38 |
| UAUUAGCAAUAUUACGCAGC | -2.56 ± 0.31 | -3.88 ± 0.24 |
| UAUUAGCAAUAUUACGCAGU | -2.72 ± 0.26 | -2.78 ± 0.28 |
| UAUUAGCAAUAUUACGCCUC | -3.1 ± 0.48 | – |
| UAUUAGCAAUAUUACGCCUU | -0.885 ± 0.36 | -0.78 ± 0.27 |

| Sequence | self-splicing fitness (ln) (37 °C) | self-splicing fitness (ln) (30 °C) |
| --- | --- | --- |
| UAUUAGCAAUAUUACGCGCC | – | -1.23 ± 0.4 |
| UAUUAGCAAUAUUACGCGUG | -0.463 ± 0.065 | -0.538 ± 0.055 |
| UAUUAGCAAUAUUACGCUCC | – | -2.75 ± 0.35 |
| UAUUAGCAAUAUUACGCUUC | -2.84 ± 0.38 | -3.43 ± 0.44 |
| UAUUAGCAAUAUUACGGAAA | -1.98 ± 0.46 | -1.81 ± 0.48 |
| UAUUAGCAAUAUUACGGCAC | -0.983 ± 0.35 | -1.88 ± 0.21 |
| UAUUAGCAAUAUUACGGGUG | 0.0549 ± 0.098 | -0.149 ± 0.069 |
| UAUUAGCAAUAUUACGGUAG | -0.417 ± 0.17 | -2.42 ± 0.21 |
| UAUUAGCAAUAUUACGUAGC | -1.31 ± 0.27 | -2.37 ± 0.22 |
| UAUUAGCAAUAUUACGUCUC | -1.5 ± 0.22 | -2.7 ± 0.35 |
| UAUUAGCAAUAUUACGUGAA | -1.87 ± 0.15 | -2.17 ± 0.13 |
| UAUUAGCAAUAUUACGUGCA | -0.986 ± 0.16 | -0.96 ± 0.16 |
| UAUUAGCAAUAUUACGUGGU | -2.69 ± 0.23 | -2.57 ± 0.15 |
| UAUUAGCAAUAUUACGUUAA | -1.53 ± 0.18 | -1.91 ± 0.36 |
| UAUUAGCAAUAUUACGUUAU | -2.2 ± 0.22 | -2.68 ± 0.19 |
| UAUUAGCAAUAUUACGUUCG | -0.121 ± 0.18 | -1.13 ± 0.16 |
| UCAAAGCAAUAUUACGAACU | -1.97 ± 0.23 | -3.14 ± 0.19 |
| UCAAAGCAAUAUUACGAAGC | -1.84 ± 0.38 | -3.5 ± 0.33 |
| UCAAAGCAAUAUUACGACGG | 0.125 ± 0.12 | -0.0455 ± 0.082 |
| UCAAAGCAAUAUUACGACUA | -1.03 ± 0.1 | -1.14 ± 0.098 |
| UCAAAGCAAUAUUACGAGCA | -0.556 ± 0.15 | -1.07 ± 0.15 |
| UCAAAGCAAUAUUACGAUGC | -0.924 ± 0.15 | -2.78 ± 0.15 |
| UCAAAGCAAUAUUACGAUUA | -1.16 ± 0.12 | -1.26 ± 0.11 |
| UCAAAGCAAUAUUACGAUUC | -2.63 ± 0.28 | -3.67 ± 0.27 |
| UCAAAGCAAUAUUACGCGUG | -0.871 ± 0.066 | -1.31 ± 0.057 |
